Consider three molecules from patent US20230159643A1 (H LUNDBECK A S, published 2023).

The target of test [1] is T1, Sortilin SORTECDBAP_hB12390 (human/tetraodon chimera).
T1 construct: Shuffle construct
T1 chain: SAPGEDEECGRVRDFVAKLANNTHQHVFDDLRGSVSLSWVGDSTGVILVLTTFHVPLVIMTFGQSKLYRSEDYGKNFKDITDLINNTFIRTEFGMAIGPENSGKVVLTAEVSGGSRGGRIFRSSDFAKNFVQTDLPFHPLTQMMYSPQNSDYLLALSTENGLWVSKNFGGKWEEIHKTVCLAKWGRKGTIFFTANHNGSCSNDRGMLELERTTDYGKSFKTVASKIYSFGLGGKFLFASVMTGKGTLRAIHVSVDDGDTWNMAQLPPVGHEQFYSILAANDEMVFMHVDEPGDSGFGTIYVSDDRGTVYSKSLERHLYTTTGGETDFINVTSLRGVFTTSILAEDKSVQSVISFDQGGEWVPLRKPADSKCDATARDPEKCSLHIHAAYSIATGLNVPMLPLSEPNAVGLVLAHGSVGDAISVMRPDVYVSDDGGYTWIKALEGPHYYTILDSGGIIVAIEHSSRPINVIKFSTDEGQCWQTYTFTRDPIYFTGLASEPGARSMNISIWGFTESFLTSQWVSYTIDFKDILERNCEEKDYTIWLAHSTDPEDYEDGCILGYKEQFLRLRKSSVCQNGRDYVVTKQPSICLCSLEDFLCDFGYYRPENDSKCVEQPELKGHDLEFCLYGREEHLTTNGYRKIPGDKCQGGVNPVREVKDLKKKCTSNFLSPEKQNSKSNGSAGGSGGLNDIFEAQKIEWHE
The test can be described thus: BLI Octet 384RED, antibody on Protein A sensor, Sortilin construct in solution. The method, then:
(§1) Binding kinetics of anti-Sortilin HuMab antibodies to Sortilin were determined using Octet 384RED (Fortebio, Menlo Park, USA). HuMab solutions of 2 μg/ml were made by dilution in sample diluent (ForteBio, art. No. 18-5028). Prot A sensors (ForteBio, art. no. 18-0004) were prewetted with kinetics buffer (1:10 sample diluent in PBS) for at least 600 seconds. Subsequently sensors were immobilized with HuMab solution for 600 seconds. A baseline response was obtained by dipping in kinetics buffer for 120 seconds. Association of SORTECD constructs was performed during a 1000 seconds incubation. This was followed by dissociation in kinetics buffer for 100 seconds. After dissociation, sensors were regenerated (10 mM Glycine pH 1.0) and neutralized (kinetics buffer) 3 times for 5 seconds. […] A molecular weight of 76.8 kDA was used for SORTECDHis. Data was fitted with ForteBio Analysis 6.4 software, using a global full fit.
(In general: BLI is a label-free optical method that tracks binding on a fibre tip over time.)

The target of test [2] is T2, Sortilin SORTECD_HIS (human, UniProt Q99523 78-755).
T2 construct: also called Sortilin-ECD-His; HIS-tagged Sortilin ECD
T2 sequence: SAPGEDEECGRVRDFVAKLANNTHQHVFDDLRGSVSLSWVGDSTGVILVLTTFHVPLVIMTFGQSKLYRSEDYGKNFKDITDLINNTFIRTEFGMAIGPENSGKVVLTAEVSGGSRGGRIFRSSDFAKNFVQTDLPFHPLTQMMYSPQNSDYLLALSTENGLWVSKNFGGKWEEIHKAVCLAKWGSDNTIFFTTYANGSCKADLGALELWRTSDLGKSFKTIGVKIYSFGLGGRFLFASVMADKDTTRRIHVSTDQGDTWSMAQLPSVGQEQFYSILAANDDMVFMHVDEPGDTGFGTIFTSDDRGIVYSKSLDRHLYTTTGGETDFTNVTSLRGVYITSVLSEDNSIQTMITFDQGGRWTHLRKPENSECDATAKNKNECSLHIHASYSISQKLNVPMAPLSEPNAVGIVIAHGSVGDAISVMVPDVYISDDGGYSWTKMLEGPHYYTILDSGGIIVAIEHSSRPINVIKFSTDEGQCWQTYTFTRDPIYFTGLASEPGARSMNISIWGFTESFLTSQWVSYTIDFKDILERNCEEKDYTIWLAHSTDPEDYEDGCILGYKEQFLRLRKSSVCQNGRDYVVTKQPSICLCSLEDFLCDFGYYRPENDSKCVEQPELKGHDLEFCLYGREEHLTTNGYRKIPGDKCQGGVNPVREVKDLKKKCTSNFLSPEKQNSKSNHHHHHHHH
The test is described as follows: HTRF: displacement of PGRN binding to His-tagged Sortilin ECD. The procedure:
Dose-response evaluation of antibodies was performed with ten concentrations covering 50 pM to 1 μM in a 3-fold dilution curve. The half-maximal inhibitory concentration (IC50) values were calculated by non-linear regression using sigmoidal concentration response (variable slope) in XLfit 4 (IDBS, UK).
Experiments were performed in assay buffer (50 mM Phosphate, pH 7.0, 0.1% BSA) in a total volume of 20 μl in a Greiner 384 well, white, low volume microtiter plate, (784075, Greiner).
For orientation: In TR-FRET formats the signal depends on donor and acceptor labels being close together.

Test [3] has as its target T3, Sortilin SORTECDBAP_hB01-05 (human/tetraodon chimera).
T3 construct: Shuffle construct
T3 chain: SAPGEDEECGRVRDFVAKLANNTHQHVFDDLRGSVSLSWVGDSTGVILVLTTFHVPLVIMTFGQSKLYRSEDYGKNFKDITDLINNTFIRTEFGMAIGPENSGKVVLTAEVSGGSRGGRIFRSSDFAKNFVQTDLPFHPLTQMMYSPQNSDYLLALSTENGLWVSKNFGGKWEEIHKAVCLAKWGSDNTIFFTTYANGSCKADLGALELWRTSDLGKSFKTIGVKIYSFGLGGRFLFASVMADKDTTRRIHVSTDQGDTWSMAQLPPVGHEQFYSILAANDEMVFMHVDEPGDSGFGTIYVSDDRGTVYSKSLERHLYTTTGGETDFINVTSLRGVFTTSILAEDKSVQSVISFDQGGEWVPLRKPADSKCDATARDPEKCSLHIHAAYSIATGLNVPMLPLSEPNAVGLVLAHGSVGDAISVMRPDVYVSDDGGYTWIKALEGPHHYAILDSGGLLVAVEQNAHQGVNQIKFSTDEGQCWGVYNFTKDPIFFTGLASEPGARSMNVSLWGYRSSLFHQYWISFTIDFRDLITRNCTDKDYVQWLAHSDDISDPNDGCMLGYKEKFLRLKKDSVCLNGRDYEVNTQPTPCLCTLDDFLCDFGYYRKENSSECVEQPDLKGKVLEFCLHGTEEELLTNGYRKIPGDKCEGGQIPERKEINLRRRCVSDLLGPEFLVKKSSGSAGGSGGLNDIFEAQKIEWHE
The test can be described thus: BLI Octet 384RED (Example 8), Sortilin construct in solution. The procedure: as §1

B1: 1320 (antibody, V domains shown)
VH: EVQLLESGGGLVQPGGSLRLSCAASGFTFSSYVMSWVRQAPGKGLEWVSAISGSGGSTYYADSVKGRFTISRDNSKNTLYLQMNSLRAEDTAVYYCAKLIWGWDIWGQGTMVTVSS
VL: EIVLTQSPATLSLSPGERATLSCRASQSVSSYLAWYQQRPGQAPRLLIYDASNRATGIPARFSGSGSGTDFTLSISSLEPEDFAVYYCQQRTNWSITFGQGTRLEIK
notes: also called IgG1-6003-1320; Antibody 1320
One may read the EC50 as the concentration needed to bring the measured effect to its halfway point. Low values mean a more potent agent, high ones a less potent agent. As a reminder, the IC50 is the midpoint of a concentration-inhibition curve. Higher therefore signals weaker potency in that assay. B1 showed an EC50 in test [1] of 0.0123 µg/mL. The same molecule gave an IC50 in test [2] of 32 nM.

B2: Antibody 1F2 (antibody, V domains shown)
VH: EVQLVESGGDLVKPGGSLKLSCAASGFTFSSYGMSWVRQTPDKRLEWVAIISSGGSYTHYPDSVKGRFTISRDNAKNTLYLQMSSLKSEDTAMYYCARLCGPLCSGYWGQGTSVTVSS
VL: QAVVTQESALTTSPGETVTLTCRSSTGAVTTSNYANWVQEKPDHLFTGLIGGTNNRAPGVPARFSGSLIGDKAALTITGAQTEDEAIYFCALWYSNHFWVFGGGTKLTVLG
notes: Mouse anti-human Sortilin monoclonal antibody from hybridoma (BALB/c), purified on protein G; Assigned to the D Region; also called 1F2F4; Ab 1F2
For the molecule B2, the binding result in test [3] was “no binding (tested: 10 µg/ml construct)”.

B3: Antibody 5E1 (antibody, V domains shown)
VH: EVHLVESGGDLVNPGGSLKLSCEASGFIFSIYGMSWVRQTPDKRLEWVAMISSGGIYTQYPDSVKGRFTISRDNAKNTLYLQMSGLKSEDTGTYHCTRHDDSWFAYWGQGTLVTVSA
VL: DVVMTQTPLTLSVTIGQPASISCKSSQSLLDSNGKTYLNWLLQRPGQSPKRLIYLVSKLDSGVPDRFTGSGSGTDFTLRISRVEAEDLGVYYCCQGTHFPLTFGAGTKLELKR
notes: Mouse anti-human Sortilin monoclonal antibody from hybridoma (BALB/c), purified on protein G; Assigned to the D Region; also called 5E1F6; Ab 5E1
Consider B3, for which the binding result in test [3] is reported as “no binding (tested: 10 µg/ml construct)”.
